Measurements taken from the supplement of paper PMC10065799, “High-throughput profiling of sequence recognition by tyrosine kinases and SH2 domains using bacterial peptide display” (eLife, 2023).

How the values were obtained:
c-Src SH2 = experiment: SH2 binding enrichment of the phosphorylated peptide, bacterial display (enrichment ratio); higher = better substrate or ligand; peptides without Tyr show the background
SHP2-C SH2 = experiment: as above
Grb2 SH2 = Grb2 SH2 (UniProt P62993); experiment: as above
FGFR1 = FGFR1 (UniProt P11362); experiment: phosphorylation enrichment, bacterial display (enrichment ratio); higher = better substrate or ligand; peptides without Tyr show the background
Jak2 = Jak2 (UniProt O60674); experiment: as above
EPHB2 = EPHB2 (UniProt P29323); experiment: as above
c-Abl (mouse) = experiment: as above
MERTK = MERTK (UniProt Q12866); experiment: as above
FGFR3 = FGFR3 (UniProt P22607); experiment: as above
AncSZ = experiment: as above
Hck = Hck (UniProt P08631); experiment: as above
Fes = Fes (UniProt P07332); experiment: as above
EPHB1 = EPHB1 (UniProt P54762); experiment: as above
Fyn = Fyn (UniProt P06241); experiment: as above
c-Src = experiment: as above
Fer (mouse) = experiment: as above
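For SH2 binding enrichment of the phosphorylated peptide, bacterial display in this document: peptide library displayed on the E. coli surface as eCPX fusions, selected cells deep-sequenced, score is each peptide's frequency after selection divided by its frequency in the input.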
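For phosphorylation enrichment, bacterial display in this document: 11-residue human phosphosite peptides and single-mutation variants displayed on the E. coli surface, counted by deep sequencing, each peptide's frequency after selection divided by its frequency in the unselected input library; frequency after pTyr selection over input frequency; kinase dosed for 20-30% of maximal phosphorylation in three min.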

Chain of FGFR1 (P11362 whole entry, looked up): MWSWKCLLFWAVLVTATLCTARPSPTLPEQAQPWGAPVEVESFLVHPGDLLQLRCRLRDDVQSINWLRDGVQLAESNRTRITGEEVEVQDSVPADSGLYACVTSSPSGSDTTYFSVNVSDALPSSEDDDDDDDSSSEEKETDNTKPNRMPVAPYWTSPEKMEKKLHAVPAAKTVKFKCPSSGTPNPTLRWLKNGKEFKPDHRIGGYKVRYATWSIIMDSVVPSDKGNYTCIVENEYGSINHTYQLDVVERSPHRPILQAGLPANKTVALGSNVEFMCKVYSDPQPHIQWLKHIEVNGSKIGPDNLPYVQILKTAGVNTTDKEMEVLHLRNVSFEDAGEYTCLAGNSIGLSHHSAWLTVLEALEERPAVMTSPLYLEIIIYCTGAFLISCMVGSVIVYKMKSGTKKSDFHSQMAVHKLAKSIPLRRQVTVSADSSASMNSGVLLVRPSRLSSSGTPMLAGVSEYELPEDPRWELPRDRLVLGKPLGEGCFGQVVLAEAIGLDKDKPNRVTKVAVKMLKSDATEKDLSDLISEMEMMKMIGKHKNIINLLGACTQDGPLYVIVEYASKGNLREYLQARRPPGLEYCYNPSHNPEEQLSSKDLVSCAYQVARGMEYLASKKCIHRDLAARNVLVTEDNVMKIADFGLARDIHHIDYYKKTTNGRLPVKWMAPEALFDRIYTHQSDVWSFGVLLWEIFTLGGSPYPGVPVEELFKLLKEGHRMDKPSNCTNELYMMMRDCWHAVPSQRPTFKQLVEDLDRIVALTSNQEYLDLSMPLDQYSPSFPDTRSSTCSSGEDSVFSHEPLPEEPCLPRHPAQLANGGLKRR
Chain of Fyn (P06241 whole entry, looked up): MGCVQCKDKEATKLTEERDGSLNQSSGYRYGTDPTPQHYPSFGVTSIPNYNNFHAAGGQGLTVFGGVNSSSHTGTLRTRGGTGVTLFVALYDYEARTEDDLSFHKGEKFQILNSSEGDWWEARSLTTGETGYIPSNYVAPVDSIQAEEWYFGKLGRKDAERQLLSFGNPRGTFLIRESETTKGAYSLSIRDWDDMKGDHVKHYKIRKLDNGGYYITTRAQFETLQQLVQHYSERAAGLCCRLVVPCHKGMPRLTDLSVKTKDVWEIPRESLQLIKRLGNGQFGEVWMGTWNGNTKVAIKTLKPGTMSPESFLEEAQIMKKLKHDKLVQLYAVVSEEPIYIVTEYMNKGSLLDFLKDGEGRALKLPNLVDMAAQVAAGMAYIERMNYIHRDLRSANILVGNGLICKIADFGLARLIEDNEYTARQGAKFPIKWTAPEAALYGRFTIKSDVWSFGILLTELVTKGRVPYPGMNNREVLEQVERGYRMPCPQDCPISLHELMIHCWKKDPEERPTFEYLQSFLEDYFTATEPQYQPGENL
Chain of Jak2 (O60674 whole entry, looked up): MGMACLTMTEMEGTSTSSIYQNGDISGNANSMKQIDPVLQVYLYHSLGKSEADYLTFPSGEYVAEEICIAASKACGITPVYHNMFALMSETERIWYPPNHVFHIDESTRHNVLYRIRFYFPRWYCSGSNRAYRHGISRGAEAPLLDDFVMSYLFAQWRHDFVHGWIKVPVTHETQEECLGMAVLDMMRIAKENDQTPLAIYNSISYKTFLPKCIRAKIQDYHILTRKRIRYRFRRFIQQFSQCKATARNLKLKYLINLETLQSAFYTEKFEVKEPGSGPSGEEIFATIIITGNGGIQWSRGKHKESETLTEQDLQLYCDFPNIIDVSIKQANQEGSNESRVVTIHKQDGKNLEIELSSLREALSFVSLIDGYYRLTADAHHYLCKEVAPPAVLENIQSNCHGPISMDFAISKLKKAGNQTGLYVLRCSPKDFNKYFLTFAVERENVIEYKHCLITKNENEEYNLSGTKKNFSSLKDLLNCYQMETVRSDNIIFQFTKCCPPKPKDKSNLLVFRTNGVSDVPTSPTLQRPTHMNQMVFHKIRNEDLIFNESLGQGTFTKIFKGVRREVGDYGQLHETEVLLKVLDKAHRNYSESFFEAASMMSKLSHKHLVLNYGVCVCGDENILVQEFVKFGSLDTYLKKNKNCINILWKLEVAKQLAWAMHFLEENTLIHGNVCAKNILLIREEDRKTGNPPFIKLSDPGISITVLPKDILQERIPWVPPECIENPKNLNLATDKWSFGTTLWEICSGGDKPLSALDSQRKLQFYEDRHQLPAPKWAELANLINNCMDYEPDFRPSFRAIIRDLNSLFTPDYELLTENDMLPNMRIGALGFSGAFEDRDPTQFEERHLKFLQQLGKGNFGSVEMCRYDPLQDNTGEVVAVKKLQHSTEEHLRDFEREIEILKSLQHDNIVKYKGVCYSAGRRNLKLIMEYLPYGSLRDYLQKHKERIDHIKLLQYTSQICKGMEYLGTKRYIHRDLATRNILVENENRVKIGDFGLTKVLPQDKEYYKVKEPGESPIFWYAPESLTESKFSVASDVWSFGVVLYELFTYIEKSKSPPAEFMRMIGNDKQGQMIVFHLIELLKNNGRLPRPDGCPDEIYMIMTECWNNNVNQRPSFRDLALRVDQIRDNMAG
Chain of EPHB2 (P29323 whole entry, looked up): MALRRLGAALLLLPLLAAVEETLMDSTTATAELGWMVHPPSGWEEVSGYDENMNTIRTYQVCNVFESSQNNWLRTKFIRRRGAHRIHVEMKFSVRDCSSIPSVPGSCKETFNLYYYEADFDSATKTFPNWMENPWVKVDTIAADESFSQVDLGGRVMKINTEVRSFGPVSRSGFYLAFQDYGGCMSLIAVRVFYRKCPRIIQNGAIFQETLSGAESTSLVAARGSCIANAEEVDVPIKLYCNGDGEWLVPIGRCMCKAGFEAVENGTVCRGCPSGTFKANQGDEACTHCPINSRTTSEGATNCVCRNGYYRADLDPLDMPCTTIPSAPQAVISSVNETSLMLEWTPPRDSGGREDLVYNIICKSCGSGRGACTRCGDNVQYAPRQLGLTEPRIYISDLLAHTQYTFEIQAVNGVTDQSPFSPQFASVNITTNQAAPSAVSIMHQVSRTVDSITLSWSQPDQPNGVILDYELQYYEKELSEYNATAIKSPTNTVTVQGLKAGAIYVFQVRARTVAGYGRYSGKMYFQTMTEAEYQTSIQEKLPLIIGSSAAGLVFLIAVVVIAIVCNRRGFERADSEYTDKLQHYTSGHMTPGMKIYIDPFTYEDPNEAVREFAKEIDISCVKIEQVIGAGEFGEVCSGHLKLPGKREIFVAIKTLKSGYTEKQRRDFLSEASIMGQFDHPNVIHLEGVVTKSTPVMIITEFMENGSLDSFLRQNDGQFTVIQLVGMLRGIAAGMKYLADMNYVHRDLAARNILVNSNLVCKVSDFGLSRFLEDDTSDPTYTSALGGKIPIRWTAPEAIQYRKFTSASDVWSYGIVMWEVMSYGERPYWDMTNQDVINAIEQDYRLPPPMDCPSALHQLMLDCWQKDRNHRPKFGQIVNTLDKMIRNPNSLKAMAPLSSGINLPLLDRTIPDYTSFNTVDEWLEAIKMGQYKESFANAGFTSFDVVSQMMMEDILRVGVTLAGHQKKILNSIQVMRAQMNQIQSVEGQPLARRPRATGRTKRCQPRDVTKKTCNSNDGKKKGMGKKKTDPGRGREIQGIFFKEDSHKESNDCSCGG
Chain of MERTK (Q12866 whole entry, looked up): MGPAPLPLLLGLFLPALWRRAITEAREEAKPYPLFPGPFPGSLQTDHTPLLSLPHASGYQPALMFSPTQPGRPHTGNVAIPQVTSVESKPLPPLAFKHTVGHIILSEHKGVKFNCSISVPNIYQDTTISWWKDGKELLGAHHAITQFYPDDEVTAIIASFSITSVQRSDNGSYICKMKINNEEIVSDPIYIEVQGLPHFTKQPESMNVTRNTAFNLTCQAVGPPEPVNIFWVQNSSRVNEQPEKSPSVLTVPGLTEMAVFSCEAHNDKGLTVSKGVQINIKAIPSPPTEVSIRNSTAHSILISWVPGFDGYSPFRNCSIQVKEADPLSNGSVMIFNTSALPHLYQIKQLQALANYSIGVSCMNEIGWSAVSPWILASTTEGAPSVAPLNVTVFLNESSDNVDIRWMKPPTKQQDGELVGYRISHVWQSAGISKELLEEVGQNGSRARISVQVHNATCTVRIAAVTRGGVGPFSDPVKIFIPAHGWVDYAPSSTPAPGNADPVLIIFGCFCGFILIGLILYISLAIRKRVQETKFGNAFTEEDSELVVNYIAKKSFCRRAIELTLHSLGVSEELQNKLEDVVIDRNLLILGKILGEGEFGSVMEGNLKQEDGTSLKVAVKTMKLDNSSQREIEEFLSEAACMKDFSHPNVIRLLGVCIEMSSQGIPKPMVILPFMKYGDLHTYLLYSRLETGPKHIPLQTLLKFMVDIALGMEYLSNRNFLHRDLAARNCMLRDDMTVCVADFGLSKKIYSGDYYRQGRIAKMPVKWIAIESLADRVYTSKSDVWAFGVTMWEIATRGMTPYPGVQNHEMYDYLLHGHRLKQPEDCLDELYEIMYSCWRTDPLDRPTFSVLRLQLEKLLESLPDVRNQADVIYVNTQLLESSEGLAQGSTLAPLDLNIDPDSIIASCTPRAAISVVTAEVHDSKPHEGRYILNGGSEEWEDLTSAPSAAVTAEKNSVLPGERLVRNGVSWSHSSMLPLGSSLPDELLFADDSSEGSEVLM
Chain of Hck (P08631 whole entry, looked up): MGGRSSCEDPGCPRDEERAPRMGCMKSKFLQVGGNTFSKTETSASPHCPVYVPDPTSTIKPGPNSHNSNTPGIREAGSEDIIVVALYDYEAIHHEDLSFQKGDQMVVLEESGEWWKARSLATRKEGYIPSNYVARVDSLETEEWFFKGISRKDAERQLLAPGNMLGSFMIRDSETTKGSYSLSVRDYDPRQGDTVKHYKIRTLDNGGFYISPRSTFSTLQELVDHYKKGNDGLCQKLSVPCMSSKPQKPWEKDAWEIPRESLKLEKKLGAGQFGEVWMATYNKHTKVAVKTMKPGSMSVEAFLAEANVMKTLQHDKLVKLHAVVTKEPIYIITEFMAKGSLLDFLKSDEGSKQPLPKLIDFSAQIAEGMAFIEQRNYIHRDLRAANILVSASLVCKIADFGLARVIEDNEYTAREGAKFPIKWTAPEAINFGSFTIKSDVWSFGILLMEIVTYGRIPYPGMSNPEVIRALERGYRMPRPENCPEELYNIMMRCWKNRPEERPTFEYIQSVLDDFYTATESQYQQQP

Sequence | SH2 binding enrichment (c-Src SH2) | SH2 binding enrichment (SHP2-C SH2) | SH2 binding enrichment (Grb2 SH2) | phosphorylation enrichment (FGFR1) | phosphorylation enrichment (Jak2) | phosphorylation enrichment (EPHB2) | phosphorylation enrichment (c-Abl (mouse)) | phosphorylation enrichment (MERTK) | phosphorylation enrichment (FGFR3) | phosphorylation enrichment (AncSZ) | phosphorylation enrichment (Hck) | phosphorylation enrichment (Fes) | phosphorylation enrichment (EPHB1) | phosphorylation enrichment (Fyn) | phosphorylation enrichment (c-Src) | phosphorylation enrichment (Fer (mouse))
AASTDYYKRGD [PDHA1_Y242] | 0.4 | 0.593 | 0.824 | 0.592 | 0.811 | 0.45 | 0.615 | 0.511 | 0.586 | 0.83 | 0.568 | 0.811 | 0.51 | 0.597 | 0.523 | 0.515
AAYNKYDQERF [CDC73_Y293_R292K] | 0.58 | 0.863 | 0.923 | 0.332 | 0.739 | 0.335 | 0.588 | 0.287 | 0.454 | 0.54 | 0.299 | 0.762 | 0.364 | 0.371 | 0.398 | 0.419
ACVARYIFKRL [LPCAT3_Y348_W344C] | 0.753 | 0.859 | 0.89 | 0.502 | 0.683 | 0.51 | 0.606 | 0.492 | 0.553 | 0.979 | 0.426 | 0.841 | 0.407 | 0.635 | 0.545 | 0.492
ADEQIYWQIAA [CSKtide_2014] | 0.439 | 0.515 | 0.649 | 7.87 | 1.58 | 1.37 | 5.09 | 3.12 | 6.65 | 2.59 | 4.33 | 1.56 | 2.64 | 5.62 | 4.66 | 2.25
ADIETYLLEKS [MYH7_Y266] | 0.405 | 0.88 | 0.755 | 0.484 | 0.871 | 0.582 | 0.746 | 0.46 | 0.635 | 1.04 | 0.551 | 1.12 | 0.466 | 0.554 | 0.731 | 0.431
ADRNHYRRFPR [YBX1_Y145_YF] | 0.488 | 0.55 | 0.601 | 0.539 | 0.654 | 0.54 | 0.871 | 0.552 | 0.508 | 0.8 | 0.556 | 0.71 | 0.452 | 0.519 | 0.689 | 0.603
AEFGLYGAMVW [VSX2_Y222_R227W_YF] | 0.457 | 0.656 | 0.805 | 0.645 | 1.38 | 1.15 | 0.995 | 1.06 | 0.887 | 1.26 | 2.93 | 1.48 | 0.729 | 3.08 | 2.69 | 2.1
AELVPYFMEHH [PTPN11_Y80_Q79P_YF] | 0.607 | 0.787 | 0.876 | 0.531 | 1.02 | 0.602 | 0.741 | 0.463 | 0.614 | 0.913 | 0.562 | 1.15 | 0.605 | 0.636 | 0.883 | 0.515
AELVRYYMEHH [PTPN11_Y80_Q79R] | 0.69 | 0.875 | 0.89 | 0.623 | 0.865 | 0.857 | 0.421 | 0.639 | 0.673 | 0.856 | 0.683 | 1.12 | 1.03 | 0.514 | 0.486 | 0.457
AERKLYSGAQT [ZAP70_Y178] | 0.548 | 0.635 | 0.967 | 0.36 | 0.412 | 0.295 | 0.545 | 0.414 | 0.457 | 0.504 | 0.395 | 0.536 | 0.436 | 0.375 | 0.383 | 0.358
AGIVVYNIIGW [MYH7_Y588_D587V] | 0.61 | 0.669 | 0.792 | 0.506 | 1.37 | 0.633 | 1.51 | 1.17 | 0.807 | 1.14 | 2.35 | 1.57 | 0.919 | 2.31 | 2.14 | 0.726
AGLEDYDRLRP [RAC3_Y64_Q61L] | 0.547 | 0.888 | 0.732 | 0.836 | 0.931 | 0.791 | 0.657 | 0.402 | 0.744 | 1.13 | 0.894 | 0.933 | 0.505 | 0.544 | 0.485 | 0.62
AIIEEYLHLND [EIF4G1_Y1253] | 0.446 | 0.855 | 0.763 | 0.564 | 0.959 | 0.498 | 0.585 | 0.376 | 0.736 | 1.02 | 0.492 | 1.19 | 0.564 | 0.493 | 0.411 | 0.487
AIIEEYLHLSD [EIF4G1_Y1253_N1257S] | 0.561 | 0.752 | 0.749 | 0.592 | 1.19 | 0.698 | 0.885 | 0.515 | 0.838 | 1.24 | 0.655 | 1.4 | 0.714 | 0.635 | 0.458 | 0.6
